According to US20200262877A1, “ION CHANNEL-BINDING PEPTIDES AND METHODS OF USE THEREOF” (priority 2017, published 2020):

Tests used:
TRPV1 = target: T1, TRPV1 (Homo sapiens, UniProt Q8NER1); assay: Ion channel panel (IonWorks Barracuda): TRPV1; type: cell-based; conditions: 100% = no change, <100% = inhibition
T1 construct: host or cells: HEK293 or CHO
Method in brief: (§1)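 Transfected HEK293 or CHO cells were exposed for at least 5 min to peptides at 200 nM and 20 μM final, tested in duplicate, in HEPES-buffered physiological saline. Activation was taken as peptide-plus-agonist current over control current ×100, and inhibition as 1 minus that ratio ×100. Each channel's control was its own reference compound.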

Kir2.1 = target: T2, Kir2.1 (Homo sapiens, UniProt P63252); assay: Ion channel panel (IonWorks Barracuda): Kir2.1; type: cell-based; conditions: 100% = no change, <100% = inhibition
T2 construct: host or cells: HEK293 or CHO
Method in brief: as §1

Nav1.7 = target: T3, Nav1.7 (Homo sapiens, UniProt Q15858); assay: cell-based; type: cell-based; conditions: 100% = no change; for Activity of Nav1.7 with peptide, expressed as a percentage of the reference compound: peptide at 0.2 μM; for Activity of Nav1.7 with peptide (percentage of the reference compound): peptide at 20 μM
T3 construct: host or cells: HEK293 or CHO

NR2B = target: T4, NR2B (Homo sapiens, UniProt Q13224); assay: Ion channel panel (IonWorks Barracuda): NR2B; type: cell-based; conditions: 100% = no change, <100% = inhibition
T4 construct: host or cells: HEK293 or CHO
Method in brief: as §1

NR2A = target: T5, NR2A (Homo sapiens, UniProt Q12879); assay: Ion channel panel (IonWorks Barracuda): NR2A; type: cell-based; conditions: 100% = no change, <100% = inhibition
T5 construct: host or cells: HEK293 or CHO
Method in brief: as §1

Cav2.1 = target: T6, Cav2.1 (Homo sapiens, UniProt O00555); assay: cell-based; conditions: 100% = no change, <100% = inhibition
T6 construct: host or cells: HEK293 or CHO
Method in brief: as §1

Cav2.2 = target: T7, Cav2.2 (Homo sapiens, UniProt Q00975); assay: cell-based; conditions: 100% = no change, <100% = inhibition
T7 construct: host or cells: HEK293 or CHO
Method in brief: as §1

Kv2.1 = target: T8, Kv2.1 (Homo sapiens, UniProt Q14721); assay: cell-based; conditions: 100% = no change, <100% = inhibition
T8 construct: host or cells: HEK293 or CHO
Method in brief: as §1

α3β4 = target: T9, α3β4 (Homo sapiens, UniProt P30926+P32297); assay: Ion channel panel (IonWorks Barracuda): α3β4; type: cell-based; conditions: 100% = no change, <100% = inhibition
T9 construct: host or cells: HEK293 or CHO
Method in brief: as §1

α4β2 = target: T10, α4β2 (Homo sapiens, UniProt P17787+P43681); assay: Ion channel panel (IonWorks Barracuda): α4β2; type: cell-based; conditions: 100% = no change, <100% = inhibition
T10 construct: host or cells: HEK293 or CHO
Method in brief: as §1

5HT3a = target: T11, 5HT3a (Homo sapiens, UniProt P46098); assay: Ion channel panel (IonWorks Barracuda): 5HT3a; type: cell-based
T11 construct: host or cells: HEK293 or CHO
T11 sequence (P46098 whole entry, looked up): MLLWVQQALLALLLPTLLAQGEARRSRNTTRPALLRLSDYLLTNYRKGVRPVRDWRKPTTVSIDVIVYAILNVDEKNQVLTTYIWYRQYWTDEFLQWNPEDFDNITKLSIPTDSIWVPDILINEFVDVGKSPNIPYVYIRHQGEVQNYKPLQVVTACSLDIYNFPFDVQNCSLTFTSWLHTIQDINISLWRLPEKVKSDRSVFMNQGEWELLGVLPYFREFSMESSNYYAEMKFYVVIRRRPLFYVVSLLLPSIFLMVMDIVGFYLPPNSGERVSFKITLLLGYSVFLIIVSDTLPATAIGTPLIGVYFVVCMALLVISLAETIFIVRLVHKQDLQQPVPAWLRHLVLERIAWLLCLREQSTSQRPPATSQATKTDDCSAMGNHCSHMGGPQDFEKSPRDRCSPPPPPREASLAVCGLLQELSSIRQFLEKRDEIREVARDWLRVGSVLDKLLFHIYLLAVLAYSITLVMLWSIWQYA
Method in brief: as §1

hERG = hERG (Homo sapiens, UniProt Q12809); assay: in vitro; conditions: 100% = no change, <100% = inhibition
Method in brief: as §1

Nav1.5 = Nav1.5 (Homo sapiens, UniProt Q14524); assay: in vitro; conditions: 100% = no change; for Activity of Nav1.5 with peptide, expressed as a percentage of the reference compound: peptide at 0.2 μM; for Activity of Nav1.5 with peptide (percentage of the reference compound): peptide at 20 μM
Method in brief: as §1

TRPA1 = target: T12, TRPA1 (Homo sapiens, UniProt O75762); assay: Ion channel panel (IonWorks Barracuda): TRPA1; type: cell-based; conditions: 100% = no change, <100% = inhibition
T12 construct: host or cells: HEK293 or CHO
Method in brief: as §1

GABA = assay: Ion channel panel (IonWorks Barracuda): GABA; type: cell-based; conditions: 100% = no change, <100% = inhibition
Method in brief: as §1

Kv1.2 = target: T13, Kv1.2 (Homo sapiens, UniProt P16389); assay: cell-based; type: cell-based; conditions: 100% = no change, <100% = inhibition
T13 construct: host or cells: HEK293 or CHO
Method in brief: as §1

Kv1.3 = target: T14, Kv1.3 (Homo sapiens, UniProt P22001); assay: cell-based; type: cell-based; conditions: 100% = no change, <100% = inhibition
T14 construct: host or cells: HEK293 or CHO
Method in brief: as §1

Kv1.1 = target: T15, Kv1.1 (Homo sapiens, UniProt Q09470); assay: cell-based; type: cell-based; conditions: 100% = no change, <100% = inhibition
T15 construct: host or cells: HEK293 or CHO
Method in brief: as §1

[1] = first of two Nav1.7 columns (probably TP1)
[2] = second of two Nav1.7 columns (probably TP2)
[3] = first of two Nav1.5 columns (probably TP1)
[4] = second of two Nav1.5 columns (probably TP2)

T3 sequence (Q15858 whole entry): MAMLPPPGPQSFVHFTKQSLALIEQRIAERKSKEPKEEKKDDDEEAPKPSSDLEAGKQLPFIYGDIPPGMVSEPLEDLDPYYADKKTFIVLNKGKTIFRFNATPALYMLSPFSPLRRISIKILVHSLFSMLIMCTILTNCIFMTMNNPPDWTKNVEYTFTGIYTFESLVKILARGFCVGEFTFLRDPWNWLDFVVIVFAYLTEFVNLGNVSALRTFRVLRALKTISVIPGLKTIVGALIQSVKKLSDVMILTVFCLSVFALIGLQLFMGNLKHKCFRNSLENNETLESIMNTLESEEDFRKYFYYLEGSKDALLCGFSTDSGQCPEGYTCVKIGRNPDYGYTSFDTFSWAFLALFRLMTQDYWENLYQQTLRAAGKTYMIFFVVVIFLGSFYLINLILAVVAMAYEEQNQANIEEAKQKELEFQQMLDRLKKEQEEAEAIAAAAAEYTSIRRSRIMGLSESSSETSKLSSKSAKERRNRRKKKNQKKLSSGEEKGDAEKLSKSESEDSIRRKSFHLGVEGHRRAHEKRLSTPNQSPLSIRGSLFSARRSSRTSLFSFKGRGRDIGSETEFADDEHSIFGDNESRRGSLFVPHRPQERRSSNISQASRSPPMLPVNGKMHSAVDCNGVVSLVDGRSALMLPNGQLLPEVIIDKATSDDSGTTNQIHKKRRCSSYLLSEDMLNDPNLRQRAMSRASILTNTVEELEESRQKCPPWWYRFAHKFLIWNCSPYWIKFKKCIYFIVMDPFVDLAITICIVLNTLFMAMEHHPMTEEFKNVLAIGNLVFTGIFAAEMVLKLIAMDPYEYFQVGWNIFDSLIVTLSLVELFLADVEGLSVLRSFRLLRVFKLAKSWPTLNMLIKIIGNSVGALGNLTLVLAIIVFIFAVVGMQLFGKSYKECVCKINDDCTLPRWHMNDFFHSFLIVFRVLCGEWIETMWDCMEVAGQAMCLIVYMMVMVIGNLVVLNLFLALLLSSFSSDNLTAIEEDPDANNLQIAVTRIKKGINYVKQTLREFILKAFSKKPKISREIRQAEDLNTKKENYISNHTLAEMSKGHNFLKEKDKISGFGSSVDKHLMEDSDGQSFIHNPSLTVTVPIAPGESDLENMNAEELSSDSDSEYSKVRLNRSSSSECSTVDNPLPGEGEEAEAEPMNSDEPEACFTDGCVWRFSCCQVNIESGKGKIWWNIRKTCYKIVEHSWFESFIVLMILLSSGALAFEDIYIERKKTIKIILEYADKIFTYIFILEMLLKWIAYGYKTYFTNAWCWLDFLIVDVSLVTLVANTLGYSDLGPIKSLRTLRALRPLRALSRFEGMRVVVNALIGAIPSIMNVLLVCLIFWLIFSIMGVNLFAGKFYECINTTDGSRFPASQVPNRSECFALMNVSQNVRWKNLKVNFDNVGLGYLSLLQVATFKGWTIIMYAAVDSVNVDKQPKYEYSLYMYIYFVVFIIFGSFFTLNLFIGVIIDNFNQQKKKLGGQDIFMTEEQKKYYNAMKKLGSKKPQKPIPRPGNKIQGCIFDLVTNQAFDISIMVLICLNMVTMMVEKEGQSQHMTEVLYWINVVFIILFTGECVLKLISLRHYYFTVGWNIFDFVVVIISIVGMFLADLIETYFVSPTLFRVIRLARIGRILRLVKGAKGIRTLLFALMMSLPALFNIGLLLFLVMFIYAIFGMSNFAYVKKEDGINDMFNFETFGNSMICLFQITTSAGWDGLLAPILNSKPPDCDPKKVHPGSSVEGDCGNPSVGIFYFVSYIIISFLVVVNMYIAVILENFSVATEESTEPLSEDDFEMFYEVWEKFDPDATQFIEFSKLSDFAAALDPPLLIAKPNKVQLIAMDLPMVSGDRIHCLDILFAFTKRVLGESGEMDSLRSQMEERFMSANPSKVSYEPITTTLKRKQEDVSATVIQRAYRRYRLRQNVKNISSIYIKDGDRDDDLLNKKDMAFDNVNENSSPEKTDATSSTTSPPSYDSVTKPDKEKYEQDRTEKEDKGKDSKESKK
Sequence of Nav1.5 (Q14524 whole entry): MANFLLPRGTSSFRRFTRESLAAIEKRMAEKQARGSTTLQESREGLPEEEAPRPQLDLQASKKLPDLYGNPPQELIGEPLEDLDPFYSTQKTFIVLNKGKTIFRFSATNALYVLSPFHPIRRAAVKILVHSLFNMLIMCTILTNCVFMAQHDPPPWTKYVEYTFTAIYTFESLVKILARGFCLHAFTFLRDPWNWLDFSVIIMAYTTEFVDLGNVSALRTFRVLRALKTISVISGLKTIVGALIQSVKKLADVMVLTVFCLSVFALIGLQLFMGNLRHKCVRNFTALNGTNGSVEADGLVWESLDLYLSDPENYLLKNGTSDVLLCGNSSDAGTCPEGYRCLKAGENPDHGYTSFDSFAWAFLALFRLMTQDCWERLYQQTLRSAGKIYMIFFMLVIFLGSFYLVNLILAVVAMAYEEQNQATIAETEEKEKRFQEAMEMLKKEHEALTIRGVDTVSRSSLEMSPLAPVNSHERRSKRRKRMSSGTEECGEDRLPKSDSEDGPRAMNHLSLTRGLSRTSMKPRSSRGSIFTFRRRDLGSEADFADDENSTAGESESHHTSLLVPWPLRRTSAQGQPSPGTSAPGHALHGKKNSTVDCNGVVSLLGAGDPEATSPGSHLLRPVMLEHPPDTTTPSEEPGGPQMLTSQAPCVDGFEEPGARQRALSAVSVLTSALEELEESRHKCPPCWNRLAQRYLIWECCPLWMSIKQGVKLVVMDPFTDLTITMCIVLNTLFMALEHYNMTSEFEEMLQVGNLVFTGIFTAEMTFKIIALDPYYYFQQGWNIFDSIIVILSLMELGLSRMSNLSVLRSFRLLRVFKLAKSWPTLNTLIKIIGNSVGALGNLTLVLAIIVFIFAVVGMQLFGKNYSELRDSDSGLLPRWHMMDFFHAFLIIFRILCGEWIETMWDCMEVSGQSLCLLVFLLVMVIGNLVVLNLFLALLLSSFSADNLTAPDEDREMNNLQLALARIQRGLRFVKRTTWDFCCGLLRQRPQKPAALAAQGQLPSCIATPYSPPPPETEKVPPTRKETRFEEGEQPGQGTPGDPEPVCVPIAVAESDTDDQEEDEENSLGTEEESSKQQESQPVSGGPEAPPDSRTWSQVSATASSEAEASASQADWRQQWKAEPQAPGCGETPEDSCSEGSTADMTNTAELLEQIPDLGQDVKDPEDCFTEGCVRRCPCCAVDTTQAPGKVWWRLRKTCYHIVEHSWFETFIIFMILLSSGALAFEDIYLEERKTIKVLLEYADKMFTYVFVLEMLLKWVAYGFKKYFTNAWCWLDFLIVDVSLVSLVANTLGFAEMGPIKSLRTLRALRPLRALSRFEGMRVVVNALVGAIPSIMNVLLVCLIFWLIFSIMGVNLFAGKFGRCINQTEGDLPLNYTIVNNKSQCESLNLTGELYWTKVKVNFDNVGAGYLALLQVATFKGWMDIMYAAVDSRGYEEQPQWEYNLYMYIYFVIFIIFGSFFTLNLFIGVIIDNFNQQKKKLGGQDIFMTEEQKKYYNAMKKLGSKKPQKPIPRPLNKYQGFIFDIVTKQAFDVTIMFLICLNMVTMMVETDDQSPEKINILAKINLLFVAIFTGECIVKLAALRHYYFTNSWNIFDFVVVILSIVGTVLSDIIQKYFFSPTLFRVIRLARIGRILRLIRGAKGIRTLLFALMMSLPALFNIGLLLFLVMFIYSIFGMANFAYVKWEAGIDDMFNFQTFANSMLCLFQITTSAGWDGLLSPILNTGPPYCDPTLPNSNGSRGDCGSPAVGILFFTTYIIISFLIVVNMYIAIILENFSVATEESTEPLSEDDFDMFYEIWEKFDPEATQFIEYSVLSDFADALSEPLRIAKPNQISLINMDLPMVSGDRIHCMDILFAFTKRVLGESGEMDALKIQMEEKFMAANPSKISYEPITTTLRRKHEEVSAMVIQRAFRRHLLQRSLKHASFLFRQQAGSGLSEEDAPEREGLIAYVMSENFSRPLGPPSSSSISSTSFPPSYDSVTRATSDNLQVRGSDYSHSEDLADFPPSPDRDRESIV
T8 sequence (Q14721 whole entry): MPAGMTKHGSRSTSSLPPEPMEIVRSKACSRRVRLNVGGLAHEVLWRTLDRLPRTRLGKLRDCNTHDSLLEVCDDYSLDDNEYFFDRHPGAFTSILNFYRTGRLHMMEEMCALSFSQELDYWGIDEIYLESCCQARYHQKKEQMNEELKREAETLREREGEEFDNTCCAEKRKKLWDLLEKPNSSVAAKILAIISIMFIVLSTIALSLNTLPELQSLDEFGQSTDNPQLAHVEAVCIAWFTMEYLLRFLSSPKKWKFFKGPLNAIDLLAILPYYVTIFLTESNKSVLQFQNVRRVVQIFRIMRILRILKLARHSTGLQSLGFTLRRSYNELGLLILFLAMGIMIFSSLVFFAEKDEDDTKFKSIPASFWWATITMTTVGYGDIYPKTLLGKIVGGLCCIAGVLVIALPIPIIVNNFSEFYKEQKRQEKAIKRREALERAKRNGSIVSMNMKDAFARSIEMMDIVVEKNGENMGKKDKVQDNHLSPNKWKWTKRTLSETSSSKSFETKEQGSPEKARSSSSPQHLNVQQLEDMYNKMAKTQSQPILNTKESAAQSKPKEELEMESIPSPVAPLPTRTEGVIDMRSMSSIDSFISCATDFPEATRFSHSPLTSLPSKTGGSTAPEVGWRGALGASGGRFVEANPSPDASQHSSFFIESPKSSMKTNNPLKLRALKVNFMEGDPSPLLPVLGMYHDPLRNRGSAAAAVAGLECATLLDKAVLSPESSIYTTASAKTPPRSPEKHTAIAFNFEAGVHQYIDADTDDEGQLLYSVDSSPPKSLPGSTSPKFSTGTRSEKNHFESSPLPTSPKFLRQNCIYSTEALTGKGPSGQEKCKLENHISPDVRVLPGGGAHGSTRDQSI

20 (GSQIDTNVKCSGSSKCVKICIDRYNTRGAKCINGRCTCYP) [compound 20]
Activity of TRPV1 with peptide, expressed as a percentage of the reference compound (TRPV1; peptide at 0.2 μM): 109%
Activity of TRPV1 with peptide (percentage of the reference compound) (TRPV1; peptide at 20 μM): 102%
Activity of Kir2.1 with peptide, expressed as a percentage of the reference compound (Kir2.1; peptide at 0.2 μM): 89%
Activity of Kir2.1 with peptide (percentage of the reference compound) (Kir2.1; peptide at 20 μM): 95%
Activity of Nav1.7 with peptide, expressed as a percentage of the reference compound (Nav1.7; [1]): 92%
Activity of Nav1.7 with peptide, expressed as a percentage of the reference compound (Nav1.7; [2]): 59%
Activity of Nav1.7 with peptide (percentage of the reference compound) (Nav1.7; [1]): 81%
Activity of Nav1.7 with peptide (percentage of the reference compound) (Nav1.7; [2]): 95%
Activity of NR2B with peptide, expressed as a percentage of the reference compound (NR2B; peptide at 0.2 μM): 104%
Activity of NR2B with peptide (percentage of the reference compound) (NR2B; peptide at 20 μM): 92%
Activity of NR2A with peptide, expressed as a percentage of the reference compound (NR2A; peptide at 0.2 μM): 98%
Activity of NR2A with peptide (percentage of the reference compound) (NR2A; peptide at 20 μM): 104%
Activity of Cav2.1 with peptide, expressed as a percentage of the reference compound (Cav2.1; peptide at 0.2 μM): 100%
Activity of Cav2.1 with peptide (percentage of the reference compound) (Cav2.1; peptide at 20 μM): 116%
Activity of Cav2.2 with peptide, expressed as a percentage of the reference compound (Cav2.2; peptide at 0.2 μM): 110%
Activity of Cav2.2 with peptide (percentage of the reference compound) (Cav2.2; peptide at 20 μM): 105%
Activity of Kv2.1 with peptide, expressed as a percentage of the reference compound (Kv2.1; peptide at 0.2 μM): 99%
Activity of Kv2.1 with peptide (percentage of the reference compound) (Kv2.1; peptide at 20 μM): 97%
Activity of a3b4 with peptide, expressed as a percentage of the reference compound (α3β4; peptide at 0.2 μM): 103%
Activity of a3b4 with peptide (percentage of the reference compound) (α3β4; peptide at 20 μM): 94%
Activity of a4b2 with peptide, expressed as a percentage of the reference compound (α4β2; peptide at 0.2 μM): 113%
Activity of a4b2 with peptide (percentage of the reference compound) (α4β2; peptide at 20 μM): 92%
Activity of 5HT3a with peptide (percentage of the reference compound) (5HT3a): 91%
Activity of 5HT3a with peptide, expressed as a percentage of the reference compound (5HT3a): 96%
Activity of hERG with peptide, expressed as a percentage of the reference compound (hERG; peptide at 0.2 μM): 90%
Activity of hERG with peptide (percentage of the reference compound) (hERG; peptide at 20 μM): 87%
Activity of Nav1.5 with peptide, expressed as a percentage of the reference compound (Nav1.5; [3]): 103%
Activity of Nav1.5 with peptide, expressed as a percentage of the reference compound (Nav1.5; [4]): 101%
Activity of Nav1.5 with peptide (percentage of the reference compound) (Nav1.5; [3]): 102%
Activity of Nav1.5 with peptide (percentage of the reference compound) (Nav1.5; [4]): 105%
Activity of TRPA1 with peptide, expressed as a percentage of the reference compound (TRPA1; peptide at 0.2 μM): 114%
Activity of TRPA1 with peptide (percentage of the reference compound) (TRPA1; peptide at 20 μM): 114%
Activity of GABA with peptide, expressed as a percentage of the reference compound (GABA; peptide at 0.2 μM): 109%
Activity of GABA with peptide (percentage of the reference compound) (GABA; peptide at 20 μM): 106%
Activity of Kv1.2 with peptide, expressed as a percentage of the reference compound (Kv1.2; peptide at 0.2 μM): 115%
Activity of Kv1.2 with peptide (percentage of the reference compound) (Kv1.2; peptide at 20 μM): 74%
Activity of Kv1.3 with peptide, expressed as a percentage of the reference compound (Kv1.3; peptide at 0.2 μM): 80%
Activity of Kv1.3 with peptide (percentage of the reference compound) (Kv1.3; peptide at 20 μM): 7%
Activity of Kv1.1 with peptide, expressed as a percentage of the reference compound (Kv1.1; peptide at 0.2 μM): 94%
Activity of Kv1.1 with peptide (percentage of the reference compound) (Kv1.1; peptide at 20 μM): 95%
